Data published in PMC8930183, “Structure of the Pf12 and Pf41 heterodimeric complex of Plasmodium falciparum 6-cysteine proteins” (FEMS Microbes, 2022).

T1: Pf12 labelled with DyLight 488 (Plasmodium falciparum (sequence as 3D7), DyLight 488 (N-hydroxysuccinimide ester), about 2.4 dye per protein)
T1 construct: Pf12, Plasmodium falciparum 6-cysteine protein; The FRET methods say only 'Pf12'; also called Pf12-DL488
T1 chain: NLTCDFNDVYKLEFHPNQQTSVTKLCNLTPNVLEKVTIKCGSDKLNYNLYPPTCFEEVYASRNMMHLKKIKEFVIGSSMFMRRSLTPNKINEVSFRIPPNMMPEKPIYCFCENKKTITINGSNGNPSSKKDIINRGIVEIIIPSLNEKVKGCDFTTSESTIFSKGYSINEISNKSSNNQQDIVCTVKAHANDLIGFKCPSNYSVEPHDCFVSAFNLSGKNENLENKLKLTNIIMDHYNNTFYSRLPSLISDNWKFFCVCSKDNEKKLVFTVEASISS

T2: octa-histidine tagged Pf41 D1D2 (residues 21-368) (Plasmodium falciparum, UniProt Q8I1Y0 21-368)
T2 construct: Pf41, Plasmodium falciparum 6-cysteine protein, residues K21-S368; TEV-cleavable tag left on; loaded on NTA sensors; also called tagged wildtype Pf41; source: Spodoptera frugiperda 21 cells, secreted into growth media, purified as tagged protein (Ni-IMAC, SEC); not shown: His8, N-terminal, kept
T2 sequence: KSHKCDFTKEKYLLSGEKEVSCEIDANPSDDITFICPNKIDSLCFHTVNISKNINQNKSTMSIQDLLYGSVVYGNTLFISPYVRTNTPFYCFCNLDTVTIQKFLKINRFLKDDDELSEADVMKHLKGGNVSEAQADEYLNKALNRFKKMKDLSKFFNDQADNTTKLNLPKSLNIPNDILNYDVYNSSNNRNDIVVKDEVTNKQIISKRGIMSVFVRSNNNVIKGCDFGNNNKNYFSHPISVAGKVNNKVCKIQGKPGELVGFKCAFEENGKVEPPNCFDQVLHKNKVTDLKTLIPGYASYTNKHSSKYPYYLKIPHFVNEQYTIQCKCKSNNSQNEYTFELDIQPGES


Experiments:
Settings in all cases: both partners purified
[1] = target: T1, Pf12 labelled with DyLight 488; assay: FRET or BRET; Pf12-DL488 and Pf41-DL594 mixed 1:1 with five-fold excess of nanobody; FRET signal relative to the no-nanobody control
[2] = target: T3, Pf12 D1D2 (residues 28-304), untagged (Plasmodium falciparum, UniProt C6KSX0); assay: BLI; Octet RED96e; nanobodies loaded on NTA sensors; untagged Pf12 or Pf41 (6-200 nM) or their domains in solution; PBS pH 7.4, 0.1% BSA, 0.05% TWEEN-20, 25°C; global 1:1 fit
T3 construct: Pf12, Plasmodium falciparum 6-cysteine protein, residues N28-S304 (domains D1 and D2); lacks the signal peptide and the GPI-anchor site; After TEV cleavage three residues, GAS, remain at the N-terminus as cloning artefacts; N-glycosylation sites kept; treated with PNGase F before crystallisation; also called Pf12 wildtype; source: Spodoptera frugiperda 21 cells, secreted into growth media, …

[3] = target: T4, Pf41 D1D2 (residues 21-368), untagged (Plasmodium falciparum, UniProt Q8I1Y0); assay: as above
T4 construct: Pf41, Plasmodium falciparum 6-cysteine protein, residues K21-S368 (D1 with the inserted-domain-like region ID, and D2); lacks the signal peptide and ten C-terminal residues; After TEV cleavage three residues, GAS, remain at the N-terminus as cloning artefacts; N-glycosylation sites kept; treated with PNGase F before crystallisation; also called Pf41 wildtype; source: Spodoptera frugiperda 21 …

[4] = target: T5, Pf12 D2 (residues E174-S304) (Plasmodium falciparum, UniProt C6KSX0); assay: as above
T5 construct: Pf12, Plasmodium falciparum, C-terminal 6-cys domain D2, residues E174-S304; also called Pf12 D2 domain; source: Spodoptera frugiperda 21 cells, purified by the same protocol as Pf12 D1D2; not shown: His8, N-terminal, cleaved

[5] = target: T2, octa-histidine tagged Pf41 D1D2 …; assay: BLI; Octet RED96e; octa-histidine tagged Pf41 loaded on NTA sensors; untagged Pf12 wildtype, mutant or single domain 31-1000 nM; PBS pH 7.4, 0.1% BSA, 0.05% TWEEN-20, 25°C; read-out relative maximum response against wildtype

Binder | binding result [3] | binding result [2] | binding result [4] | binding result [5] | other results
nanobody G7 (VHH, alpaca, immunised with Pf12-Pf41 complex; Pf12-specific; also called Nb G7; source: E. coli WK6, periplasmic extract, purified (HisTrap, SEC)) VHH: QVQLQESGGGLVQAGGSLRLSCAASGRTFSSYGMGWFRQAPGTEREFVAAISWSGDSTYYADSVKGRFTISIDKAKNTVYLQMNSLKPEDTAVYYCAADHALVVGGTYNYWGQGTQVTVSS | no binding | – | – | – | percent reduction of the Pf12-Pf41 FRET signal [1]: ~80%; Kd [2]: ~25 nM
nanobody D12 (VHH, alpaca, immunised with Pf12-Pf41 complex; Pf12-specific; source: E. coli WK6, periplasmic extract, purified (HisTrap, SEC)) VHH: QVQLQESGGGLVEAGGSLRLSCAASTRTFSSLVMGWFRQAPGKERELVAAISRSGDSTDYTDSVKGRFTISRDNAKNTVYLQMNSLKPEDTAVYSCAADPTGVDSSLAVGLWVYWGQGTQVTVSS | no binding | binds | binds | – | –
nanobody A10 (VHH, alpaca, immunised with Pf12-Pf41 complex; Pf12-specific; source: E. coli WK6, periplasmic extract, purified (HisTrap, SEC)) VHH: QVQLQESGGGFVQPGGSLRLSCAASGFTLDYYFIGWFRQAPGKEREGVSCISSSDGSTYYAESVKGRFTISRDNAKNTVYLQMNSLKPEDTAVYYCATDKIVCSSDFIVDYGMDSRGKGTQVTVSS | no binding | – | – | – | Kd [2]: < 0.01 nM
nanobody B5 (VHH, alpaca, immunised with Pf12-Pf41 complex; Pf12-specific; The 'Nb B5 of PDB ID 7KJH' used as a search model may be another nanobody of the same label; source: E. coli WK6, periplasmic extract, purified (HisTrap, SEC)) VHH: QVQLQESGGGLVQPGGSLRLSCAASGFTLDEYAMGWFRQAPGKEREGISCISSSDGTTFYADSVKGRFTISRDNAKNTVYLQMNSLKPEDTAVYYCATDCVGSYSRYWGQGTQVTVSS | no binding | – | – | – | Kd [2]: < 0.01 nM
nanobody C9 (VHH, alpaca, immunised with Pf12-Pf41 complex; Pf12-specific; source: E. coli WK6, periplasmic extract, purified (HisTrap, SEC)) VHH: QVQLQESGGGLVQPGGSLRLSCAASGFTLDYYAIGWFRQAPGKEREGVSCISSSGGSTYYADSVKGRSTISRDNAKNTVYLQMNSLKPEDTAVYYCATDCLRDYGLEYVPGRYDYWGQGTQVTVSS | no binding | – | – | – | Kd [2]: < 0.01 nM
nanobody B11 (VHH, alpaca, immunised with Pf12-Pf41 complex; Pf12-specific; source: E. coli WK6, periplasmic extract, purified (HisTrap, SEC)) VHH: QVQLQESGGGLVQAGGSLRLSCAASGRTFSSYAMGWFRQAPGKEREFVAAISWNGGRTYYADSVKGRFTISRDNAKNTVYLQMNSLKPEDTAVYYCAADPTGTVDDETGIYVYWGQGTQVTVSS | no binding | binds | binds | – | –
Pf12 D1D2 F241L (domain or fragment, Pf12, Plasmodium falciparum, residues N28-S304 (D1D2); source: Spodoptera frugiperda 21 cells, purified (Ni-IMAC, TEV cleavage, SEC); not shown: His8, N-terminal, cleaved) NLTCDFNDVYKLEFHPNQQTSVTKLCNLTPNVLEKVTIKCGSDKLNYNLYPPTCFEEVYASRNMMHLKKIKEFVIGSSMFMRRSLTPNKINEVSFRIPPNMMPEKPIYCFCENKKTITINGSNGNPSSKKDIINRGIVEIIIPSLNEKVKGCDFTTSESTIFSKGYSINEISNKSSNNQQDIVCTVKAHANDLIGFKCPSNYSVEPHDCFVSALNLSGKNENLENKLKLTNIIMDHYNNTFYSRLPSLISDNWKFFCVCSKDNEKKLVFTVEASISS | – | – | – | binds | –
Pf12 D1D2 M108A (domain or fragment, Pf12, Plasmodium falciparum, residues N28-S304 (D1D2); source: Spodoptera frugiperda 21 cells, purified (Ni-IMAC, TEV cleavage, SEC); not shown: His8, N-terminal, cleaved) NLTCDFNDVYKLEFHPNQQTSVTKLCNLTPNVLEKVTIKCGSDKLNYNLYPPTCFEEVYASRNMMHLKKIKEFVIGSSMFARRSLTPNKINEVSFRIPPNMMPEKPIYCFCENKKTITINGSNGNPSSKKDIINRGIVEIIIPSLNEKVKGCDFTTSESTIFSKGYSINEISNKSSNNQQDIVCTVKAHANDLIGFKCPSNYSVEPHDCFVSAFNLSGKNENLENKLKLTNIIMDHYNNTFYSRLPSLISDNWKFFCVCSKDNEKKLVFTVEASISS | – | – | – | binds | –
Pf12 D1D2 R123A (domain or fragment, Pf12, Plasmodium falciparum, residues N28-S304 (D1D2); source: Spodoptera frugiperda 21 cells, purified (Ni-IMAC, TEV cleavage, SEC); not shown: His8, N-terminal, cleaved) NLTCDFNDVYKLEFHPNQQTSVTKLCNLTPNVLEKVTIKCGSDKLNYNLYPPTCFEEVYASRNMMHLKKIKEFVIGSSMFMRRSLTPNKINEVSFAIPPNMMPEKPIYCFCENKKTITINGSNGNPSSKKDIINRGIVEIIIPSLNEKVKGCDFTTSESTIFSKGYSINEISNKSSNNQQDIVCTVKAHANDLIGFKCPSNYSVEPHDCFVSAFNLSGKNENLENKLKLTNIIMDHYNNTFYSRLPSLISDNWKFFCVCSKDNEKKLVFTVEASISS | – | – | – | binds | –
Pf12 D1D2 R110A (domain or fragment, Pf12, Plasmodium falciparum, residues N28-S304 (D1D2); source: Spodoptera frugiperda 21 cells, purified (Ni-IMAC, TEV cleavage, SEC); not shown: His8, N-terminal, cleaved) NLTCDFNDVYKLEFHPNQQTSVTKLCNLTPNVLEKVTIKCGSDKLNYNLYPPTCFEEVYASRNMMHLKKIKEFVIGSSMFMRASLTPNKINEVSFRIPPNMMPEKPIYCFCENKKTITINGSNGNPSSKKDIINRGIVEIIIPSLNEKVKGCDFTTSESTIFSKGYSINEISNKSSNNQQDIVCTVKAHANDLIGFKCPSNYSVEPHDCFVSAFNLSGKNENLENKLKLTNIIMDHYNNTFYSRLPSLISDNWKFFCVCSKDNEKKLVFTVEASISS | – | – | – | binds | –
Pf12 D1D2 M106A (domain or fragment, Pf12, Plasmodium falciparum, residues N28-S304 (D1D2); source: Spodoptera frugiperda 21 cells, purified (Ni-IMAC, TEV cleavage, SEC); not shown: His8, N-terminal, cleaved) NLTCDFNDVYKLEFHPNQQTSVTKLCNLTPNVLEKVTIKCGSDKLNYNLYPPTCFEEVYASRNMMHLKKIKEFVIGSSAFMRRSLTPNKINEVSFRIPPNMMPEKPIYCFCENKKTITINGSNGNPSSKKDIINRGIVEIIIPSLNEKVKGCDFTTSESTIFSKGYSINEISNKSSNNQQDIVCTVKAHANDLIGFKCPSNYSVEPHDCFVSAFNLSGKNENLENKLKLTNIIMDHYNNTFYSRLPSLISDNWKFFCVCSKDNEKKLVFTVEASISS | – | – | – | binds | –
Pf12 D1D2 H234A (domain or fragment, Pf12, Plasmodium falciparum, residues N28-S304 (D1D2); source: Spodoptera frugiperda 21 cells, purified (Ni-IMAC, TEV cleavage, SEC); not shown: His8, N-terminal, cleaved) NLTCDFNDVYKLEFHPNQQTSVTKLCNLTPNVLEKVTIKCGSDKLNYNLYPPTCFEEVYASRNMMHLKKIKEFVIGSSMFMRRSLTPNKINEVSFRIPPNMMPEKPIYCFCENKKTITINGSNGNPSSKKDIINRGIVEIIIPSLNEKVKGCDFTTSESTIFSKGYSINEISNKSSNNQQDIVCTVKAHANDLIGFKCPSNYSVEPADCFVSAFNLSGKNENLENKLKLTNIIMDHYNNTFYSRLPSLISDNWKFFCVCSKDNEKKLVFTVEASISS | – | – | – | binds | –
Pf12 D1D2 R109A (domain or fragment, Pf12, Plasmodium falciparum, residues N28-S304 (D1D2); source: Spodoptera frugiperda 21 cells, purified (Ni-IMAC, TEV cleavage, SEC); not shown: His8, N-terminal, cleaved) NLTCDFNDVYKLEFHPNQQTSVTKLCNLTPNVLEKVTIKCGSDKLNYNLYPPTCFEEVYASRNMMHLKKIKEFVIGSSMFMARSLTPNKINEVSFRIPPNMMPEKPIYCFCENKKTITINGSNGNPSSKKDIINRGIVEIIIPSLNEKVKGCDFTTSESTIFSKGYSINEISNKSSNNQQDIVCTVKAHANDLIGFKCPSNYSVEPHDCFVSAFNLSGKNENLENKLKLTNIIMDHYNNTFYSRLPSLISDNWKFFCVCSKDNEKKLVFTVEASISS | – | – | – | binds | –
nanobody C1 (VHH, alpaca, immunised with Pf12-Pf41 complex; Pf12-specific; source: E. coli WK6, periplasmic extract, purified (HisTrap, SEC)) VHH: QVQLQESGGGLVQPGASLRLSCTVSGIIMADHAIGWFRQAPGKEREGIACFIRSDGTTYYSDSAKGRFTISRDNAKNTVYLQMNSLKPEDTADYYCATGKIVCANGFIVDYGSDYRGKGTQVTVSS | no binding | binds | binds | – | –
nanobody H11 (VHH, alpaca, immunised with Pf12-Pf41 complex; Pf12-specific; source: E. coli WK6, periplasmic extract, purified (HisTrap, SEC)) VHH: QVQLQESGGGLVQPGGSLRLSCAGSGFTLDHYAIGWFRQAPGKEREGVSCIISSDSSTYYTDSVKGRFTISRDNAKNTVYLQMNSLKPEDTAVYYCATEKIVCASGFIVDYGMDYCGKGTQVTVSS | no binding | binds | binds | – | –
nanobody C12 (VHH, alpaca, immunised with Pf12-Pf41 complex; Pf12-specific; source: E. coli WK6, periplasmic extract, purified (HisTrap, SEC)) VHH: QVQLQESGGGLVQAGGSLRLSCAASGRTFSSYSMGWFRQAPGKQRELVAAISSGGSTDYTDSVKGRFTISRDNAKNTVYLQMNSLKPEDTAVYYCAAGDYSDYVGMWDIWGQGTQVTVSS | no binding | binds | binds | – | –
